Tested on: Bacillus subtilis
Assay: cleaved RNA product abundance (RNA/gDNA barcode ratio) relative to median wild-type variant (ratio to wild type); higher = more accumulation of the downstream cleavage product
How it was run: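 Cleaved product abundance was measured with barcoded reporter mRNAs (truncated aprE or tetM) carrying mutagenized RNase Y cleavage-site windows in the B. subtilis chromosome. Cultures in LB at 37°C grew from OD600 0.0003 to 0.3. Gel-selected cleaved RNA was reverse transcribed and barcode-sequenced with genomic DNA barcodes, and the RNA:gDNA barcode ratio per construct was scaled to the median construct bearing the unmutated site.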

[1] = experiment (reporter, strain, medium): exp 8a: truncated aprE reporter, strain BJT201 with 2% xylose (RNase J1 expressed), cleavage site: glnRA (positions -5 to +31 mutated)
[2] = experiment (reporter, strain, medium): exp 2b: truncated aprE reporter, strain BJT200, cleavage site: cggR-gapA (positions -7 to +36 mutated)
[3] = experiment (reporter, strain, medium): exp 4a: truncated aprE reporter, strain BJT201 with 2% xylose (RNase J1 expressed), cleavage site: cggR-gapA (positions -7 to +36 mutated)
[4] = experiment (reporter, strain, medium): exp 6: tetM reporter, strain 168, cleavage site: cggR-gapA (positions -7 to +36 mutated)

Sequence	cleaved RNA product abundance [1]	cleaved RNA product abundance [3]	other results
CGACATGTCCCGCTTCTTTCATTAATACGTTAGTAACTGTTTTGCTATATACATTTACCTTTTAAGAGGAGGAAT	0.334	–	–
ACAGACGAAGGAGCCGCAAAAAAGTTATTAAGGGATGAATACTCCCTCAATATAAATATCTCTCACTTATTTAAA	–	0.58	cleaved RNA product abundance [2]: 0.519
CGACATGTCCCGCTTCTTTCATTAATCCGAAAGCAACTGTTTTGCTATATACATTTACCTTTTAAGAGGAGGAAT	0.39	–	–
CGACATGTCCCGCTTCTTTCATTAATCCTTTAGCAACTGTTTTGCTATATATATTTACCTTTTAAGAGGAGGAAT	0.909	–	–
ACAGACGAAGGAGCCGCAAACAAGTTATTAAGGGATGAATAATCCCTCAACATAAATATCTCTCACTTATTTAAA	–	0.25	–
CGACATGTCCCGCTTCTTTCATTAATCCTTTAGCAACTGTTTTGCCATATACATTTACCTTTTAAGAGGAGGAAT	0.2	–	–
CGACATGTCCCGCTTCTTTCATTAATCCGTTAGCAACTGTTTTGCTATATACACTTACCTTTTAAGAGGAGGAAT	0.964	–	–
CGACATGTCCCGCTTCTTTCATTAATCCGTTAGCATCTCTTTTGCTATATACATTTACCTTTTAAGAGGAGGAAT	0.59	–	–
ACAGACGAAGGAGCCGCAAAGAAGTAATTAAGGGATGAATAATCCCTCAATATAAACATCTCTCACTTATTTAAA	–	0.264	–
ACAGACGAAGGAGCCGCAAAAAAGTTACTAAGGGATGAATAATCCCTCAATATAAATATCTCTCACTTATTTAAA	–	–	cleaved RNA product abundance [2]: 0.222
ACAGACGAAGGAGCCGCAAAGAAGTTATTAAAGGATGAATAATCCCTCAATATACATATCTCTCACTTATTTAAA	–	0.17	cleaved RNA product abundance [4]: 0.136
ACAGACGAAGGAGCCGCAAAGAAGTTATTAATGGATGAATAATCCCTCAACATAAATATCTCTCACTTATTTAAA	–	0.101	–
ACAGACGAAGGAGCCGCAATGAAGTTATCAAGGGATGAATAATCCCTCAATATAAATATCTCTCACTTATTTAAA	–	0.487	–
ACAGACGAAGGAGCCGCAAAGAAGTTTTTAACGGATGAATAATCCCTCAATATAAATATCTCTCACTTATTTAAA	–	0.197	cleaved RNA product abundance [4]: 0.192
ACAGACGAAGGAGCCGCAAAGAAGTTATTATGGGATGAATAAACCCTCAATATAAATATCTCTCACTTATTTAAA	–	0.21	–
ACAGACGAAGGAGCCGCAAAGAAGTTATTAAGGGATGATTAATCCCTCAAAATAAATATCTCTCACTTATTTAAA	–	0.282	cleaved RNA product abundance [2]: 0.294
ACAGACGAAGGAGCCGCAAAGAAGTTATCAAGGGATGAATAATCCCTCAAAATAAATATCTCTCACTTATTTAAA	–	0.289	cleaved RNA product abundance [2]: 0.2
CGACATGTCCCGCTTCTTTCATTAATCCGTTAGCAATTGTTTTGATATATACATTTACCTTTTAAGAGGAGGAAT	0.65	–	–
ACAGACGAAGGAGCCGCAACGAAGTTATAAAGGGATGAATAATCCCTCAATATAAATATCTCTCACTTATTTAAA	–	0.54	–
CGACATGTCCCGCTTCTTTCATTAATCCATTAGCCACTGTTTTGCTATATACATTTACCTTTTAAGAGGAGGAAT	0.271	–	–
ACAGACGAAGGAGCCGCAAAGAAGTTATTAAGGGATGAGAAATCCCTCAATATAAATATCTCTCACTTATTTAAA	–	0.604	–

Sequence	cleaved RNA product abundance [1]	cleaved RNA product abundance [3]	other results
ACAGACGAAGGAGCCGCAAAGAAGTAATTAAGGGATGAATAATCCCTCATTATAAATATCTCTCACTTATTTAAA	–	0.278	–
CGACATGTCCCGCTTCTTTCATTAATCCGTTAGCAACTGTTTTGCGATATACATTAACCTTTTAAGAGGAGGAAT	0.781	–	–
ACAGACGAAGGAGCCGCAAAGAAGTTATTAAGGGATGAATAATCGCTCATTATAAATATCTCTCACTTATTTAAA	–	–	cleaved RNA product abundance [2]: 0.0605
ACAGACGAAGGAGCCGCAAAGAAGTTATTAAGGGACGAATAATCCATCAATATAAATATCTCTCACTTATTTAAA	–	0.0728	–
CGACATGTCCCGCTTCTTTCATTAATCCGTTTGCAACTATTTTGCTATATACATTTACCTTTTAAGAGGAGGAAT	0.859	–	–
ACAGACGAAGGAGCCGCAAAGAAGTTATTAAGGCATGAATAATCCCTCGATATAAATATCTCTCACTTATTTAAA	–	0.0814	–
CGACATGTCCCGCTTCTTTCATTAATCCGTTAGTAACTGTTTTGATATATACATTTACCTTTTAAGAGGAGGAAT	0.66	–	–
ACAGACGAAGGAGCCGCAAAGAAGTTATTAAGGGACGAATAGTCCCTCAATATAAATATCTCTCACTTATTTAAA	–	–	cleaved RNA product abundance [2]: 0.905
ACAGACGAAGGAGCCGCAAAGAAGTTATTAAGGGATGAATAATACCACAATATAAATATCTCTCACTTATTTAAA	–	0.0911	cleaved RNA product abundance [2]: 0.0894
ACAGACGAAGGAGCCGCAATGAAGTTATTAAGGTATGAATAATCCCTCAATATAAATATCTCTCACTTATTTAAA	–	0.146	cleaved RNA product abundance [2]: 0.109
ACAGACGAAGGAGCCGCAAAGAAGTTATTAATGGATGAATAATCCCTCAAGATAAATATCTCTCACTTATTTAAA	–	0.0994	cleaved RNA product abundance [2]: 0.0884
ACAGACGAAGGAGCCGCAAAGATGTTATTAAGCGATGAATAATCCCTCAATATAAATATCTCTCACTTATTTAAA	–	0.11	cleaved RNA product abundance [2]: 0.0873
CGACATGTCCCGCTTCTTTCATTAATCCGTTAGCAACTGTTTTGATATATACATTTATCTTTTAAGAGGAGGAAT	0.509	–	–
CGACATGTCCCGCTTCTTTCATTAATCCGTTAGCAACTGTATTGCTATATACATGTACCTTTTAAGAGGAGGAAT	0.783	–	–
CGACATGTCCCGCTTCTTTCATTAATCCGTAAGCAACTGTTTTGGTATATACATTTACCTTTTAAGAGGAGGAAT	0.312	–	–
ACAGACGAAGGAGCCGCAAAGAAGTTATTAAGGGATGGATAATCCCTAAATATAAATATCTCTCACTTATTTAAA	–	0.553	–
CGACATGTCCCGCTTCTTTCATTACTCCCTTAGCAACTGTTTTGCTATATACATTTACCTTTTAAGAGGAGGAAT	0.223	–	–
ACAGACGAAGGAGCCGCAAAGAAGTTCTTAAGGGATCAATAATCCCTCAATATAAATATCTCTCACTTATTTAAA	–	0.205	–
ACAGACGAAGGAGCCGCAAAATAGTTATTAAGGGATGAATAATCCCTCAATATAAATATCTCTCACTTATTTAAA	–	0.703	–
CGACATGTCCCGCTTCTTTCATTAATCCGTTAGCAACTGTGTTGCTATATACATTTACATTTTAAGAGGAGGAAT	0.517	–	–
ACAGACGAAGGAGCCGCAAAGAAGTTATAAAGGGATGAATAATCCGTCAATATAAATATCTCTCACTTATTTAAA	–	–	cleaved RNA product abundance [2]: 0.154

Sequence	cleaved RNA product abundance [1]	cleaved RNA product abundance [3]	other results
CGACATGTCCCGCTTCTTTCATTAATCCGTTAGTAACTGTTTTCCTATATACATTTACCTTTTAAGAGGAGGAAT	0.44	–	–
ACAGACGAAGGAGCCGCAAAGAAGTGATTAAGGGATGAATACTCCCTCAATATAAATATCTCTCACTTATTTAAA	–	0.354	–
CGACATGTCCCGCTTCTTTCATTATTCCGTTAGCAACTGTTTTGCTATATCCATTTACCTTTTAAGAGGAGGAAT	0.359	–	–
ACAGACGAAGGAGCCGCAAAGACGTTATTAAGGAATGAATAATCCCTCAATATAAATATCTCTCACTTATTTAAA	–	0.14	–
ACAGACGAAGGAGCCGCAAAGAAGTTATTAAGGGATGAATAATTCCTAAATATAAATATCTCTCACTTATTTAAA	–	0.508	–
ACAGACGAAGGAGCCGCAAAGAAGTTAGTACGGGATGAATAATCCCTCAATATAAATATCTCTCACTTATTTAAA	–	–	cleaved RNA product abundance [2]: 0.269
ACAGACGAAGGAGCCGCAAAGAAGTTATTAAAGGATGTATAATCCCTCAATATAAATATCTCTCACTTATTTAAA	–	0.177	–
ACAGACGAAGGAGCCGCAAAGAAGTTATTAAGGGATGAACATTCCCTCAATATAAATATCTCTCACTTATTTAAA	–	0.633	–
ACAGACGAAGGAGCCGCAAAGAAGTTATTAAGGGATGAATATTCCCTCAATATAAATCTCTCTCACTTATTTAAA	–	0.471	–
ACAGACGAAGGAGCCGCAAAGAAGTTATTAAACGATGAATAATCTCTCAATATAAATATCTCTCACTTATTTAAA	–	0.179	cleaved RNA product abundance [2]: 0.109
CGACATGTCCCGCTTCTTTCATTAATCCCTTAGCAACTGTTTTACTATATACATTTACCTTTTAAGAGGAGGAAT	0.0875	–	–
CGACATGTCCCGCTTCTTTCATTAATCCGTTAGCAACTGTTTTGCTATATACTTTTACCTTTTAAGAGGAGGAAT	0.641	–	–
CGACATGTCCCGCTTCTTTCATTAATCCGTTAGCAACTGCTTTGCTATATACATTAACCTTTTAAGAGGAGGAAT	0.575	–	–
ACAGACGAAGGAGCCGCAAAGAAGTTATTAAGGGATGAATAATCCCTCATTATAAATAACTCTCACTTATTTAAA	–	0.248	–
ACAGACGAAGGAGCCGCAAAAAAGTTATTAAGGGATGAATAATCCCTCAATCTAAATATCTCTCACTTATTTAAA	–	–	cleaved RNA product abundance [2]: 0.137
ACAGACGAAGGAGCCGCGAAGAAGTTTTTAAGGGATGAATAATCCCTCAATATAAATATCTCTCACTTATTTAAA	–	0.418	–
ACAGACGAAGGAGCCGCAAAGAAGTTTTTAAGGGACGAATAATCCCTCAATATAAATATCTCTCACTTATTTAAA	–	0.444	–
CGACATGTCCCGCTTCTTTCATTAATGCGTTAGCAACTGTTTTTCTATATACATTTACCTTTTAAGAGGAGGAAT	0.479	–	–
ACAGACGAAGGAGCCGCAAAGAAGTTATTAAGGGATGAAGAATCCTTCAATATAAATATCTCTCACTTATTTAAA	–	0.405	cleaved RNA product abundance [2]: 0.265
